Laboratory results from publication PMC11957791.

Target: SBW25 RimK (P. fluorescens SBW25) (UniProt C3KE61)
Sequence of UniProt C3KE61 (C3KE61 whole entry): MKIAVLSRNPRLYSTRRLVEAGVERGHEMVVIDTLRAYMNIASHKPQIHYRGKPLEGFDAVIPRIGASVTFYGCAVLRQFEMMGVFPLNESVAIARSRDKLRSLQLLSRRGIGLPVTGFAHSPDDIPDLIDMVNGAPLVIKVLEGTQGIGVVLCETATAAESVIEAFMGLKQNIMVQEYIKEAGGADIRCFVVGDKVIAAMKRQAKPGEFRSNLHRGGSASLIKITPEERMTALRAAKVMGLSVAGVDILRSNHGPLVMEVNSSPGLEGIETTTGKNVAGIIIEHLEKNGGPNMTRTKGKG

SBW25 RimB (enzyme)
ATPase specific activity of SBW25 RimK (3.8 μM) with RimB (6.0 μM), linked PK/LDH assay; RimK only 47 nmol/min/mg RimK: 196 nmol/min/mg
